Experimental data reported in article PMC6289497 (ACS Omega, 2018).

Assays:
[1] = molecular target: human metapneumovirus (HMPV) strain CAN97-83 M2-1 protein (human metapneumovirus strain CAN97-83); assay: Gdm.HCl-induced equilibrium denaturation
[2] = molecular target: the molecule itself; assay: SEC

Molecule	stoichiometry N [1]	binding result [2]
human metapneumovirus (HMPV) strain CAN97-83 M2-1 protein (natural protein)	4	
H25A RSV-M2-1 (natural protein) MSRRNPCKFEIRGHCLNGKRCHFSANYFEWPPHALLVRQNFMLNRILKSMDKSIDTLSEISGAAELDRTEEYALGVVGVLESYIGSINNITKQSACVAMSKLLTELNSDDIKKLRDNEELNSPKIRVYNTVISYIESNRKNNKQTIHLLKRLPADVLKKTIKNTLDIHKSITINNPKESTVSDTNDHAKNNDTT		binds
H25C RSV-M2-1 (natural protein) MSRRNPCKFEIRGHCLNGKRCHFSCNYFEWPPHALLVRQNFMLNRILKSMDKSIDTLSEISGAAELDRTEEYALGVVGVLESYIGSINNITKQSACVAMSKLLTELNSDDIKKLRDNEELNSPKIRVYNTVISYIESNRKNNKQTIHLLKRLPADVLKKTIKNTLDIHKSITINNPKESTVSDTNDHAKNNDTT		binds
